# According to US12723255B2, “Herbicide tolerance genes and methods of use thereof” (priority 2014, dated 2026):
# B1: MON-HT2: engineered oxygenase protein, amino acid sequence SEQ ID NO:18 (protein)
# chain: MHAALTPLTNKYRFIDVQPLTGVLGAEITGVDLREPLDDSTWNEILDAFHTYQVIYFPGQAITNEQHIAFSRRFGPVDPVPLLKSIEGYPEVQMIRREANESSRVIGDDWHSDSTFLDAPPAAVVMRAIEVPEYGGDTGFLSMYSAWETLSPTMQATIEGLNVVHSATKVFGSLYQATNWRFSNTSVKVMDVDAGDRETVHPLVVTHPVTGRRALYCNQVYCQKIQGMTDAESKSLLQFLYEHATKFDFTCRVRWKKDQVLVWDNLCTMHRAAPDYAGKFRYLTRTTVAGDKPSR
# Experiments:
# [1] = type: biochemical
# How it was run: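 Quizalofop-P or 2,4-D was the substrate. All components were pre-heated 5 min at the test temperature, and the reaction was held there throughout. Activity was normalized to 25 °C readings (wild-type enzyme at 25 °C for the in-depth set), and T1/2 is the temperature giving half-maximal activity.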
# F1 hybrid maize plants [2] = experiment: efficacy field trial with segregating F1 hybrid plants; type: in vivo; settings: for % Injury from V4 2,4-D / % Injury from V8 2,4-D: 2,4-D amine 2× at VE-V2 (plus quizalofop-P 0.5×), V4, V8; for % Injury from V4 Quizalofop / % Injury from V8 Quizalofop: quizalofop-P 2× at VE-V2, V4, V8
# How it was run: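 Field plots of segregating F1 hybrids (LH244 transformants crossed with MON89034) received either quizalofop-P 0.16 lb ai/acre + 0.25% NIS at VE-V2, V4 and V8, or 2,4-D amine 2 lb ae/acre (+ quizalofop-P 0.04 lb ai/acre at VE-V2) + NIS at VE-V2, V4, V8. Crop injury visually rated 0–100, 10–14 days after application.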
# F1 hybrid maize plants [3] = experiment: efficacy field trial for quizalofop-P tolerance and clethodim sensitivity; type: in vivo; settings: for tolerance to the quizalofop-P application: 1.28 lb ai/acre (16×); for average injury rating, V4 Growth Stage, 4x Quizalofop / average injury rating, V8 Growth Stage, 4x Quizalofop / average injury rating, V4 Growth Stage, 8x Quizalofop / average injury rating, V8 Growth Stage, 8x Quizalofop / average injury rating, V4 Growth Stage, 16x Quizalofop / average injury rating, V8 Growth Stage, 16x Quizalofop / average injury rating, V8 Growth Stage, 1x Clethodim: scale 0 to 100; for average injury rating, V4 Growth Stage, 4x Quizalofop / average injury rating, V8 Growth Stage, 4x Quizalofop: 0.32 lb ai/acre at VE-V2, V4, V8; for average injury rating, V4 Growth Stage, 4x Quizalofop / average injury rating, V8 Growth Stage, 4x Quizalofop / average injury rating, V4 Growth Stage, 8x Quizalofop / average injury rating, V8 Growth Stage, 8x Quizalofop / average injury rating, V4 Growth Stage, 16x Quizalofop / average injury rating, V8 Growth Stage, 16x Quizalofop: with CTP unless label says no CTP; for average injury rating, V4 Growth Stage, 8x Quizalofop / average injury rating, V8 Growth Stage, 8x Quizalofop: 0.64 lb ai/acre at VE-V2, V4, V8; for average injury rating, V4 Growth Stage, 16x Quizalofop / average injury rating, V8 Growth Stage, 16x Quizalofop: 1.28 lb ai/acre at VE-V2, V4, V8; for average injury rating, V8 Growth Stage, 1x Clethodim: clethodim 0.25 lb ai/acre at V8, volunteer control
# How it was run: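 F1 hybrids of MON89034 × R1 plants carrying MON-HT constructs, NK603×MON89034 control, at two sites. Quizalofop-P at 0.32, 0.64 or 1.28 lb ai/acre + 0.25% v/v NIS at VE-V2, V4 and V8; clethodim 0.25 lb ai/acre + NIS at V8. Injury rated visually 0–100 at 10-14 days after application.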
molecule,measurement,setting,value
B1,"T1/2, temperature at which the enzyme activity was half of maximum",[1],46 °C
same,temperature sensitivity compared with the wild-type enzyme,"[1]; substrate 2,4-D, lower T1/2 than wild-type",slightly more temperature sensitive
same,"% Injury from V4 2,4-D",F1 hybrid maize plants [2]; CTP A,20%
same,"% Injury from V8 2,4-D",F1 hybrid maize plants [2]; CTP A,34.17%
same,% Injury from V4 Quizalofop,F1 hybrid maize plants [2]; CTP A,0%
same,% Injury from V8 Quizalofop,F1 hybrid maize plants [2]; CTP A,0%
same,"% Injury from V4 2,4-D",F1 hybrid maize plants [2]; CTP B,10.56%
same,"% Injury from V8 2,4-D",F1 hybrid maize plants [2]; CTP B,13.33%
same,% Injury from V4 Quizalofop,F1 hybrid maize plants [2]; CTP B,11.67%
same,% Injury from V8 Quizalofop,F1 hybrid maize plants [2]; CTP B,11.67%
same,"% Injury from V4 2,4-D",F1 hybrid maize plants [2]; CTP C,12%
same,"% Injury from V8 2,4-D",F1 hybrid maize plants [2]; CTP C,12%
same,% Injury from V4 Quizalofop,F1 hybrid maize plants [2]; CTP C,14.33%
same,% Injury from V8 Quizalofop,F1 hybrid maize plants [2]; CTP C,14.33%
same,"% Injury from V4 2,4-D",F1 hybrid maize plants [2]; CTP None,20%
same,"% Injury from V8 2,4-D",F1 hybrid maize plants [2]; CTP None,33.75%
same,% Injury from V4 Quizalofop,F1 hybrid maize plants [2]; CTP None,0%
same,% Injury from V8 Quizalofop,F1 hybrid maize plants [2]; CTP None,0%
same,tolerance to the quizalofop-P application,"F1 hybrid maize plants [3]; operably linked to a CTP, FIG. 5A",robust tolerance
same,"average injury rating, V4 Growth Stage, 4x Quizalofop",F1 hybrid maize plants [3],1.5
same,"average injury rating, V8 Growth Stage, 4x Quizalofop",F1 hybrid maize plants [3],2.5
same,"average injury rating, V4 Growth Stage, 4x Quizalofop",F1 hybrid maize plants [3]; listed as MON-HT2 (no CTP),42.5
same,"average injury rating, V8 Growth Stage, 4x Quizalofop",F1 hybrid maize plants [3]; listed as MON-HT2 (no CTP),16.3
same,"average injury rating, V4 Growth Stage, 8x Quizalofop",F1 hybrid maize plants [3],0.8
same,"average injury rating, V8 Growth Stage, 8x Quizalofop",F1 hybrid maize plants [3],3.8
same,"average injury rating, V4 Growth Stage, 8x Quizalofop",F1 hybrid maize plants [3]; listed as MON-HT2 (no CTP),76.3
same,"average injury rating, V8 Growth Stage, 8x Quizalofop",F1 hybrid maize plants [3]; listed as MON-HT2 (no CTP),52.5
same,"average injury rating, V4 Growth Stage, 16x Quizalofop",F1 hybrid maize plants [3],10.0
same,"average injury rating, V8 Growth Stage, 16x Quizalofop",F1 hybrid maize plants [3],4.8
same,"average injury rating, V4 Growth Stage, 16x Quizalofop",F1 hybrid maize plants [3]; listed as MON-HT2 (no CTP),82.5
same,"average injury rating, V8 Growth Stage, 16x Quizalofop",F1 hybrid maize plants [3]; listed as MON-HT2 (no CTP),77.5
same,"average injury rating, V8 Growth Stage, 1x Clethodim",F1 hybrid maize plants [3],93.3
same,"average injury rating, V8 Growth Stage, 1x Clethodim",F1 hybrid maize plants [3]; listed as MON-HT2 (no CTP),92.0
same,tolerance to the quizalofop-P application,"F1 hybrid maize plants [3]; without a CTP, FIG. 5B",moderate to poor tolerance
